Source: patent publication US20230220589A1

Assays:
[1] = target: M44-modified W NTAA target peptides; assay: encoding assay; P2 F
[2] = target: M44-modified M NTAA target peptides; assay: encoding assay; P2 F
[3] = target: M44-modified S NTAA target peptides; assay: encoding assay; P2 F
[4] = target: M44-modified I NTAA target peptides (M44-I-P2-peptide); assay: encoding assay; P2 F
[5] = target: M44-modified Y NTAA target peptides (M44-Y-P2-peptide); assay: encoding assay; P2 F
[6] = target: M44-modified N NTAA target peptides; assay: encoding assay; P2 F
[7] = target: M44-modified F NTAA target peptides (M44-F-P2-peptide); assay: encoding assay; P2 Q
[8] = target: M44-modified M NTAA target peptides; assay: encoding assay; P2 Q
[9] = target: M44-modified D NTAA target peptides; assay: encoding assay; P2 Q
[10] = target: M44-modified A NTAA target peptides (M44-A-P2-peptide); assay: encoding assay; P2 Q
[11] = target: M44-modified S NTAA target peptides; assay: encoding assay; P2 Q
[12] = target: M44-modified I NTAA target peptides (M44-I-P2-peptide); assay: encoding assay; P2 Q
[13] = target: M44-modified N NTAA target peptides; assay: encoding assay; P2 Q
[14] = target: M44-modified Q NTAA target peptides; assay: encoding assay; P2 Q
[15] = target: M44-modified E NTAA target peptides; assay: encoding assay; P2 Q
[16] = target: M44-modified H NTAA target peptides; assay: encoding assay; P2 Q
[17] = target: M44-modified L NTAA target peptides (M44-L-P2-peptide); assay: encoding assay; P2 Q
[18] = target: M44-modified V NTAA target peptides; assay: encoding assay; P2 Q
[19] = target: M44-modified F NTAA target peptides (M44-F-P2-peptide); assay: encoding assay; P2 M
[20] = target: M44-modified M NTAA target peptides; assay: encoding assay; P2 M
[21] = target: M44-modified I NTAA target peptides (M44-I-P2-peptide); assay: encoding assay; P2 M
[22] = target: M44-modified Y NTAA target peptides (M44-Y-P2-peptide); assay: encoding assay; P2 M
[23] = target: M44-modified N NTAA target peptides; assay: encoding assay; P2 M
[24] = target: M44-modified E NTAA target peptides; assay: encoding assay; P2 M
[25] = target: M44-modified T NTAA target peptides; assay: encoding assay; P2 M
[26] = target: M44-modified L NTAA target peptides (M44-L-P2-peptide); assay: encoding assay; P2 M
[27] = target: M44-modified P NTAA target peptides; assay: encoding assay; P2 M
[28] = target: M44-modified V NTAA target peptides; assay: encoding assay; P2 M
[29] = target: M44-modified F NTAA target peptides (M44-F-P2-peptide); assay: encoding assay; P2 T
[30] = target: M44-modified A NTAA target peptides (M44-A-P2-peptide); assay: encoding assay; P2 T
[31] = target: M44-modified I NTAA target peptides (M44-I-P2-peptide); assay: encoding assay; P2 T
[32] = target: M44-modified G NTAA target peptides (M44-G-P2-peptide); assay: encoding assay; P2 T
[33] = target: M44-modified N NTAA target peptides; assay: encoding assay; P2 T
[34] = target: M44-modified Q NTAA target peptides; assay: encoding assay; P2 T
[35] = target: M44-modified E NTAA target peptides; assay: encoding assay; P2 T
[36] = target: M44-modified L NTAA target peptides (M44-L-P2-peptide); assay: encoding assay; P2 T
[37] = target: M44-modified P NTAA target peptides; assay: encoding assay; P2 T
[38] = target: M44-modified V NTAA target peptides; assay: encoding assay; P2 T
[39] = target: M44-modified F NTAA target peptides (M44-F-P2-peptide); assay: encoding assay; P2 N
[40] = target: M44-modified W NTAA target peptides; assay: encoding assay; P2 N
[41] = target: M44-modified M NTAA target peptides; assay: encoding assay; P2 N
[42] = target: M44-modified D NTAA target peptides; assay: encoding assay; P2 N
[43] = target: M44-modified S NTAA target peptides; assay: encoding assay; P2 N
[44] = target: M44-modified I NTAA target peptides (M44-I-P2-peptide); assay: encoding assay; P2 N
[45] = target: M44-modified Y NTAA target peptides (M44-Y-P2-peptide); assay: encoding assay; P2 N
[46] = target: M44-modified N NTAA target peptides; assay: encoding assay; P2 N
[47] = target: M44-modified Q NTAA target peptides; assay: encoding assay; P2 N
[48] = target: M44-modified E NTAA target peptides; assay: encoding assay; P2 N
[49] = target: M44-modified H NTAA target peptides; assay: encoding assay; P2 N
[50] = target: M44-modified L NTAA target peptides (M44-L-P2-peptide); assay: encoding assay; P2 N
[51] = target: M44-modified V NTAA target peptides; assay: encoding assay; P2 N
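Note: fraction of recording tags encoded.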

B1: engineered M44-A binder (SEQ ID NO: 42) (designed binder, not shown: small tags and cut ends; large carriers)
chain: QVSVQPNFQQDKFLGRWFVAGLASNSSWDREKVAALSGAKMVVAPATDGGLNVTRTMLRKNQCETYTGLLQPAGSLGSYSWRSPHPGSTGSESVVETDYDQYALVYGQGSKGPGEDLRAAALWSRTQTPRAELKEKFTAFSKAQGFTEDTIVFLPQTDKCMTEQ
[1]
  encoding yield: 0.03
[2]
  encoding yield: 0.09
[3]
  encoding yield: 0.18
[4]
  encoding yield: 0.07
[5]
  encoding yield: 0.05
[6]
  encoding yield: 0.03
[7]
  encoding yield: 0.03
[8]
  encoding yield: 0.01
[9]
  encoding yield: 0.03
[10]
  encoding yield: 0.22
[11]
  encoding yield: 0.05
[12]
  encoding yield: 0.02
[13]
  encoding yield: 0.05
[14]
  encoding yield: 0.02
[15]
  encoding yield: 0.04
[16]
  encoding yield: 0.04
[17]
  encoding yield: 0.04
[18]
  encoding yield: 0.06
[19]
  encoding yield: 0.04
[20]
  encoding yield: 0.02
[21]
  encoding yield: 0.15
[22]
  encoding yield: 0.03
[23]
  encoding yield: 0.02
[24]
  encoding yield: 0.03
[25]
  encoding yield: 0.21
[26]
  encoding yield: 0
[27]
  encoding yield: 0.03
[28]
  encoding yield: 0.12
[29]
  encoding yield: 0.04
[30]
  encoding yield: 0.24
[31]
  encoding yield: 0.05
[32]
  encoding yield: 0.07
[33]
  encoding yield: 0.03
[34]
  encoding yield: 0.05
[35]
  encoding yield: 0.01
[36]
  encoding yield: 0.05
[37]
  encoding yield: 0.05
[38]
  encoding yield: 0.05
[39]
  encoding yield: 0
[40]
  encoding yield: 0.01
[41]
  encoding yield: 0.02
[42]
  encoding yield: 0.02
[43]
  encoding yield: 0.05
[44]
  encoding yield: 0.03
[45]
  encoding yield: 0.05
[46]
  encoding yield: 0.05
[47]
  encoding yield: 0.04
[48]
  encoding yield: 0.03
[49]
  encoding yield: 0.03
[50]
  encoding yield: 0.04
[51]
  encoding yield: 0.08
